This is an account of results in US20210253692A1 (GALAPAGOS, published 2021).

This data set deals with the molecule itself. Description: dynamic light scattering in phosphate buffered saline; self-interaction of the antibody.

B1: MAB#1 (antibody, human IgG1, lambda, V domains shown)
VH: EVQLLESGGGLVQPGGSLRLSCAASGFTVSDYAMHWVRQAPGKGLEWVSYIGGVGEGTQYAESVKGRFTISRDNSKNTLYLQMNSLRAEDTAVYYCARGFAIRYYGFDYWGQGTLVTVSS
VL: SYELTQPPSVSVSPGQTASITCSGDKLGDKYAYWYQQKPGQSPVLVIYQDSKRPSGIPERFSGSNSGNTATLTISGTQAEDEADYYCQVFTFPLVTTVFGGGTKLTVLG
notes: also called IL-17C antibody; anti-IL-17C antibody
As to B1, the “kD (diffusion interaction parameter)” value was -23.6 mL/g.
